Consider one molecule from paper PMC11519345, “Structural variation of types IV-A1- and IV-A3-mediated CRISPR interference”.

The data set has as its target Type IV-A1 effector complex (Cas5-Cas8-Cas7-Cas6 crRNP), DinG-free;DinG (CasDinG, Csf4) type IV-A1 (Pseudomonas oleovorans;Pseudomonas …, UniProt A0A379PL53;A0A379PIR4;A0A379PIR9;A0A379PNK2;A0A379PL92 …, |). In words: cryo-EM; crRNA; DinG bound; PDB code not assigned in the material; EMSA: 10 mM HEPES pH 7.5, 150 mM NaCl, 1 nM DNA, on ice then 20 min RT, 6% native PAGE in TBE at 4 C; cryo-EM: 10 uM complex + 15 uM DNA in the same buffer, 10. The conditions noted are these: protein: recombinant;recombinant; tags: His6 C-terminal on Cas8;; copies: 1;1;5;1;1; bubble: non-complementary protospacer, paired 15 nt and 14+ nt ends.

B1: Type IV-A1 bubbled target DNA (TS/NTS) for cryo-EM (dsDNA)
DNA 1: CGGTCGGGTCATACGTCGCGTCTCGAATCTGATGCGTAACTTGGATGCTTCGTGCGTGATG
DNA 2: CATCACGCACGAAGACCAAGTCAATGCTTAGTCTAATACCTGCGCTCGTATGACCCGACCG
In the case of B1, the binding result was “binds”.
